Ten molecules from US20120114682A1 (GEORGIA TECH RESEARCH, published 2012) can be followed below.

By Kd is commonly meant a measure of binding affinity in units of concentration. A lower Kd goes with a tighter complex. By koff is commonly meant the first-order rate constant of dissociation. Usually kon stands for the rate constant with which the complex forms. Low values mean slow association, high ones fast association.

The target of test [1] is T1, Fibrinogen fragment D (human, UniProt P02671 130-216; P02675 164-491; P02679 114-432, limits assumed).
T1 construct: domain: Fragment D (or D-domain); Made by plasmin digestion of human fibrinogen and purified on GPRPAA beads; holds the C-terminal polymerization pockets without the N-terminal knobs; immobilised by amine coupling on the SPR chip; also called D-domain
T1 sequence (looked up) 1: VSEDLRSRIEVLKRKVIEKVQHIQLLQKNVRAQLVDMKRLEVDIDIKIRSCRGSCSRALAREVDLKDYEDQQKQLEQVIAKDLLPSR
T1 sequence (looked up) 2: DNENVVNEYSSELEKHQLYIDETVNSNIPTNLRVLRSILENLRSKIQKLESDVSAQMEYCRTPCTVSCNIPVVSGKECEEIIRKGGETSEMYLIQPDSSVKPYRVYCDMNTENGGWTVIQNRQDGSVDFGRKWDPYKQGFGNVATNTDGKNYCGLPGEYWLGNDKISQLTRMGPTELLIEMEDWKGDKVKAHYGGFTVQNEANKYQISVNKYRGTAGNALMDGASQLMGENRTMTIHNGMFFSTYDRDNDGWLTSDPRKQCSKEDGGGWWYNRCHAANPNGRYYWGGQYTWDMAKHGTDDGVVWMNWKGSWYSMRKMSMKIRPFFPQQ
T1 sequence (looked up) 3: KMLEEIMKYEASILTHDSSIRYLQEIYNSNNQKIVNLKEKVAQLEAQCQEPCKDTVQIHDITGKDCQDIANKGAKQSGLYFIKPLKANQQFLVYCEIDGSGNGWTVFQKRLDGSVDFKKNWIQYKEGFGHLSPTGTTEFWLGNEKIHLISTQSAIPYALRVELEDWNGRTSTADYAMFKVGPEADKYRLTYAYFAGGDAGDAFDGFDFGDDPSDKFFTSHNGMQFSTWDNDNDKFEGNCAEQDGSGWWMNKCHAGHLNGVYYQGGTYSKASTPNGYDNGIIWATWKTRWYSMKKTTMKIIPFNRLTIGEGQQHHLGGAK
Briefly: SPR, fragment D immobilised, competitor soluble GPRP peptide in the analyte solution.

For test [2], the target named is T1, Fibrinogen fragment D. Briefly: SPR (Biacore 2000), fragment D immobilised, equilibrium response fit to a single-site model.
Test [3] concerns the target Fibrin matrix (clot) (human) (UniProt P02671). Briefly: confocal colocalisation, perfused fibrin clot, 20 min.
The target is the same in test [4]. Briefly: confocal colocalisation, perfused fibrin clot, 10 min.
Test [5] shares this target. Put plainly: confocal colocalisation, perfused fibrin clot, 30 min.
For test [6] the target is unchanged. Briefly: confocal colocalisation, perfused fibrin clot, 0 min.
The next test has as its target Human fibrinogen (human) (UniProt P02671). Put plainly: competition ELISA: soluble peptide added to fibrinogen, binding of fibrinogen to immobilised GPRP-FnIII9-10-C is measured; signal normalised to the GSPE peptide. (In general: In an ELISA, binding on a coated surface is turned into a signal by an enzyme label.)
Test [7] concerns the target T1, Fibrinogen fragment D. Briefly: SPR, heterogeneous ligand model, site 2 (KD2 = kd/ka). As to the method: (§1) Upon stabilization of the baseline signal, kinetic binding experiments were run in duplicate with the peptide variants as the flow analytes. Five varying concentrations for each peptide (0.94 μM to 150 μM) were flowed at 25 μL/min for 4 min immediately followed by a 10 min dissociation phase. Between each run, the surface was regenerated with 1M sodium bromide and 50 mM sodium acetate (pH 6.0). SPR experiments were performed three times with varying peptide injection order to rule out binding trends associated with injection sequence. Peptide solutions were incubated with tris(2-carboxyethyl)phosphine (TCEP) immobilized on agarose beads (Thermo Fisher Scientific, Inc; Rockland, Ill.) to ensure reduction of any disulfide bonds between C-terminal cysteines.
(§2) To investigate the dynamic binding profile between the fibrinogen/fibrin holes and knob peptide variants, SPR was employed. Binding interactions were evaluated by flowing the knob peptides over an immobilized surface of fragment D (FIG. 8). By immobilizing fragment D as opposed to full-length fibrinogen, the kinetic binding model was simplified to a heterogeneous 2-site ligand model (i.e. one hole ‘a’ and hole ‘b’ per ligand) as opposed to a 4-site model (i.e. two of each hole ‘a’ and hole ‘b’ per ligand). The data was modeled using both a Langmuir 1:1 model and a heterogeneous ligand model to compare previously established binding affinities to a more dynamic two-site model. However, the complexity of the heterogeneous model fitted parameters for sites 1 and 2 (i.e. maximal binding response, kₐ, and kd) limits direct designation or assignment of holes ‘a’ or ‘b’ to site 1 or 2. […] All peptide SPR data was fit except for the negative control peptide, GPSPAAC (SEQ ID NO:9), where minimal binding response was observed.
Background: In SPR one partner is held on a chip, and binding of the other changes the refractive index at the surface.

The target of test [8] is T1, Fibrinogen fragment D. Briefly: SPR, heterogeneous ligand model, site 1 (KD1 = kd/ka). As to the method:
as §1, §2

The target of test [9] is T1, Fibrinogen fragment D. Put plainly: SPR, fragment D immobilised, Langmuir 1:1 model. As to the method: as §1, §2
Test [10] concerns the target T1, Fibrinogen fragment D. Briefly: SPR, fragment D immobilised, heterogeneous ligand model, site 2 (kd2). The protocol:
as §1, §2

For test [11], the target named is T1, Fibrinogen fragment D. Put plainly: SPR, fragment D immobilised, heterogeneous ligand model, site 1 (ka1). The protocol:
as §1, §2

Test [12] addresses T1, Fibrinogen fragment D. Put plainly: SPR (Biacore 2000), fragment D immobilised, Langmuir 1:1 model. The protocol: as §1, §2
Test [13] addresses T1, Fibrinogen fragment D. Briefly: SPR, fragment D immobilised, heterogeneous ligand model, site 2. The protocol: as §1, §2
Test [14] concerns the target T1, Fibrinogen fragment D. Put plainly: SPR, fragment D immobilised, heterogeneous ligand model, site 1. The protocol: as §1, §2
For test [15], the target named is T1, Fibrinogen fragment D. Put plainly: SPR, fragment D immobilised, heterogeneous ligand model, site 1 (kd1). As to the method: as §1, §2
For test [16], the target named is T1, Fibrinogen fragment D. Put plainly: SPR, fragment D immobilised, heterogeneous ligand model, site 2 (ka2). As to the method:
as §1
To investigate the dynamic binding profile between the fibrinogen/fibrin holes and knob peptide variants, SPR was employed. Binding interactions were evaluated by flowing the knob peptides over an immobilized surface of fragment D (FIG. 8). By immobilizing fragment D as opposed to full-length fibrinogen, the kinetic binding model was simplified to a heterogeneous 2-site ligand model (i.e. one hole ‘a’ and hole ‘b’ per ligand) as opposed to a 4-site model (i.e. two of each hole ‘a’ and hole ‘b’ per ligand). […]

Fibrin matrix (clot) (human), sequence (P02671 36-629 limits assumed, chain 1 of 2): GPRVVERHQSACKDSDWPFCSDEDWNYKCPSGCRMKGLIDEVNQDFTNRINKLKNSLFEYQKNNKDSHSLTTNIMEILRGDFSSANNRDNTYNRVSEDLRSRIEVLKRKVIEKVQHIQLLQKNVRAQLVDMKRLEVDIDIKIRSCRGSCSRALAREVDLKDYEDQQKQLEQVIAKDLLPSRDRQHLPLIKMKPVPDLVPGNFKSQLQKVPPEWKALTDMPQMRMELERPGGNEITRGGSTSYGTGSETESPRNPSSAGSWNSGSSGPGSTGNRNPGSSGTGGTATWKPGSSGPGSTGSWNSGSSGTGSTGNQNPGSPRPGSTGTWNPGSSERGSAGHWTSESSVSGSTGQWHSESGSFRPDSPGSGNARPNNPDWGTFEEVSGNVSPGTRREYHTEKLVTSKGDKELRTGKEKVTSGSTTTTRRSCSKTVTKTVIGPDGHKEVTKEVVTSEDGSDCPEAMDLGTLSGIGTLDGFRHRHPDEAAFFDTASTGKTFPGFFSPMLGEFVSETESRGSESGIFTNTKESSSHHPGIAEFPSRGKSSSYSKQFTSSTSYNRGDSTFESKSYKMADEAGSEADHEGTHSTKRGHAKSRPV
Fibrin matrix (clot) (human), sequence (P02679 other isoform, or with tags, fused parts or gaps limits assumed, chain 3 of 2, further chain): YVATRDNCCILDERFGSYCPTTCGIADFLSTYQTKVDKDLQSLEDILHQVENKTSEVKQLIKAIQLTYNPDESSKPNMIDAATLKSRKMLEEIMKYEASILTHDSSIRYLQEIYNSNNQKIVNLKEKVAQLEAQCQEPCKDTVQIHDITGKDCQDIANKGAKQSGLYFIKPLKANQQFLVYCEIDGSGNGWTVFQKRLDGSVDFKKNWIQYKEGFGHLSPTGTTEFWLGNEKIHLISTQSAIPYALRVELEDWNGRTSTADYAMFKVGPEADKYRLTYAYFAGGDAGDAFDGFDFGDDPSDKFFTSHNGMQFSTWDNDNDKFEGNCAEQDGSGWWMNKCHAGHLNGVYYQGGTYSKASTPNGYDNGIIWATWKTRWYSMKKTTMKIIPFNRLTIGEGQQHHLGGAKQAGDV

In the case of “GPRP-FnIII9-10 (from UniProt P02751 1448-1631)”, in the test with Fibrinogen fragment D [1], the KD in the presence of a 10-molar excess of soluble GPRP peptide is 43 µM. Besides, the Kd with Fibrinogen fragment D [2] was determined as 3 µM.
“GSPE-FnIII9-10-AF633 (from UniProt P02751 1448-1631)”: in test [3], the Colocalization Coefficient (Fibrin) amounted to 0.003, the Colocalization Coefficient (GSPE-Fn) is 0.0413, the Correlation Coefficient (R) amounted to 0.02 and the Mean Intensity (GSPE-Fn) was determined as 44. The molecule further displayed a Relative Area of Colocalization in [3] of 0.1%. In [4], this molecule came in with a Colocalization Coefficient (Fibrin) of 0.001, a Colocalization Coefficient (GSPE-Fn) of 0.521, a Correlation Coefficient (R) of -0.06 and a Mean Intensity (GSPE-Fn) of 45. Also, the Relative Area of Colocalization in test [4] was 0%. In test [5], the Colocalization Coefficient (Fibrin) was 0.003, the Colocalization Coefficient (GSPE-Fn) was found to be 0.377, the Correlation Coefficient (R) was -0.02 and the Mean Intensity (GSPE-Fn) is 38. In test [5], the Relative Area of Colocalization came to 0.1%. In [6], this molecule registered a Colocalization Coefficient (Fibrin) of 0.01, a Colocalization Coefficient (GSPE-Fn) of 0.739, a Correlation Coefficient (R) of 0.04 and a Mean Intensity (GSPE-Fn) of 46. In addition, in [6], the Relative Area of Colocalization is 0.6%.
In [3], “GPRP-FnIII9-10-AF633 (from UniProt P02751 1448-1631)” gave a Colocalization Coefficient (Fibrin) of 0.219, a Colocalization Coefficient (GPRP-Fn) of 0.948, a Correlation Coefficient (R) of 0.14 and a Mean Intensity (GPRP-Fn) of 52. In test [3], the Relative Area of Colocalization came to 19.1%. In [4], this molecule came in with a Colocalization Coefficient (Fibrin) of 0.325, a Colocalization Coefficient (GPRP-Fn) of 0.956, a Correlation Coefficient (R) of 0.19 and a Mean Intensity (GPRP-Fn) of 55. For the same molecule, in [4], the Relative Area of Colocalization is 28.5%. In test [5], this molecule yielded a Colocalization Coefficient (Fibrin) of 0.159, a Colocalization Coefficient (GPRP-Fn) of 0.926, a Correlation Coefficient (R) of 0.11 and a Mean Intensity (GPRP-Fn) of 51. The Relative Area of Colocalization in [5] was found to be 12.8%. In test [6], this molecule gave a Colocalization Coefficient (Fibrin) of 0.981, a Colocalization Coefficient (GPRP-Fn) of 0.965, a Correlation Coefficient (R) of 0.47 and a Mean Intensity (GPRP-Fn) of 100. Besides, the Relative Area of Colocalization in [6] was found to be 94.2%.
For the molecule “GPRV-FnIII9-10 (from UniProt P02751 1448-1631)”, in the test with Fibrinogen fragment D [2], the Kd worked out at 125 µM.
For the molecule GPRV [GPRV tetrapeptide], the IC50 (read off the curve) with Human fibrinogen (human) came out at 200 µg/mL.

B1: GPRVVAAC (peptide)
peptide: GPRVVAAC
notes: Synthetic (GenScript); also called knob 'A' peptide
As to B1, the Kd is 25 µM with Fibrinogen fragment D [7] and 48.5 µM with Fibrinogen fragment D [8]. The koff was found to be 0.0107 s⁻¹ in the test with Fibrinogen fragment D [9], 0.001 s⁻¹ with Fibrinogen fragment D [10] and 0.0301 s⁻¹ with Fibrinogen fragment D [15]. The same molecule returned a kon with Fibrinogen fragment D [11] of 620 M⁻¹ s⁻¹. The “Bmax (maximal binding capacity of fragment D)” value with Fibrinogen fragment D [12] came out at 18.9 RU. In the test with Fibrinogen fragment D [13], the “B*max (maximal binding capacity of fragment D, site 2)” value (shortened to “B*max”) stood at 13.5 RU. In addition, the “Bmax (maximal binding capacity of fragment D, site 1)” value in the test with Fibrinogen fragment D [14] turned out to be 8.36 RU.

B2: GPRVVERC (peptide)
peptide: GPRVVERC
notes: as for B1
As for B2, the equilibrium dissociation constant (Kd) in the test with Fibrinogen fragment D [7] is 15.7 µM; with Fibrinogen fragment D [8] it was 53.9 µM. Moreover, the kon with Fibrinogen fragment D [16] is 260 M⁻¹ s⁻¹; with Fibrinogen fragment D [9] it was 280 M⁻¹ s⁻¹. The values for the koff in the test with Fibrinogen fragment D [9], in the test with Fibrinogen fragment D [10] and in the test with Fibrinogen fragment D [15] were 0.0234 s⁻¹, 0.00407 s⁻¹ and 0.0577 s⁻¹, respectively. Moreover, the “Bmax (maximal binding capacity of fragment D)” value in the test with Fibrinogen fragment D [12] came to 16.3 RU. Besides, the “B*max” value in the test with Fibrinogen fragment D [13] stood at 10.3 RU. Further, in the test with Fibrinogen fragment D [14], the “Bmax (maximal binding capacity of fragment D, site 1)” value was found to be 25.6 RU.

B3: GPRPFPAC (peptide)
peptide: GPRPFPAC
notes: as for B1
For B3, the Kd in the test with Fibrinogen fragment D [7] turned out to be 1.08 µM; with Fibrinogen fragment D [8], 3.73 µM. Besides, the kon in the test with Fibrinogen fragment D [16] was determined as 1810 M⁻¹ s⁻¹; with Fibrinogen fragment D [9], 12500 M⁻¹ s⁻¹; with Fibrinogen fragment D [11], 21700 M⁻¹ s⁻¹. Moreover, the off-rate (koff) in the test with Fibrinogen fragment D [9] was 0.00727 s⁻¹; with Fibrinogen fragment D [10], 0.00196 s⁻¹; with Fibrinogen fragment D [15], 0.0811 s⁻¹. In addition, in the test with Fibrinogen fragment D [12], the “Bmax (maximal binding capacity of fragment D)” value is 17.7 RU. Moreover, the “B*max” value with Fibrinogen fragment D [13] was 11.3 RU. Further, the “Bmax (maximal binding capacity of fragment D, site 1)” value in the test with Fibrinogen fragment D [14] stood at 17.6 RU.

B4: GPRPAAC (peptide)
peptide: GPRPAAC
notes: Synthetic (GenScript); kept reduced with immobilised TCEP; also called gold standard GPRP mimic; knob 'A' peptide
As for B4, the Kd with Fibrinogen fragment D [7] was found to be 8.52 µM; in the test with Fibrinogen fragment D [8] it was 4.53 µM. Also, the koff came out at 0.0117 s⁻¹ with Fibrinogen fragment D [9], 0.00895 s⁻¹ with Fibrinogen fragment D [10] and 0.0128 s⁻¹ in the test with Fibrinogen fragment D [15]. The figures for the kon in the test with Fibrinogen fragment D [9] and with Fibrinogen fragment D [11] were 1140 M⁻¹ s⁻¹ and 2840 M⁻¹ s⁻¹, respectively. In addition, the “Bmax (maximal binding capacity of fragment D)” value in the test with Fibrinogen fragment D [12] was 21.5 RU. In addition, the “B*max” value with Fibrinogen fragment D [13] is 5.91 RU. Further, the “Bmax (maximal binding capacity of fragment D, site 1)” value with Fibrinogen fragment D [14] came out at 19.4 RU.

B5: GPRPPERC (peptide)
peptide: GPRPPERC
notes: as for B1
As for B5, the results for the Kd with Fibrinogen fragment D [7] and with Fibrinogen fragment D [8] were 2.93 µM and 18.2 µM, respectively. For the same molecule, the koff was found to be 0.00992 s⁻¹ with Fibrinogen fragment D [9], 0.00296 s⁻¹ in the test with Fibrinogen fragment D [10] and 0.0587 s⁻¹ in the test with Fibrinogen fragment D [15]. Moreover, the figures for the kon with Fibrinogen fragment D [9] and in the test with Fibrinogen fragment D [11] were 1290 M⁻¹ s⁻¹ and 3220 M⁻¹ s⁻¹, respectively. In the test with Fibrinogen fragment D [12], the “Bmax (maximal binding capacity of fragment D)” value was found to be 19.2 RU. For the same molecule, in the test with Fibrinogen fragment D [13], the “B*max” value was 5.92 RU. In addition, the “Bmax (maximal binding capacity of fragment D, site 1)” value with Fibrinogen fragment D [14] amounted to 14.6 RU.
